Data on seven proteins can be found in paper PMC11739650 (Communications Biology, 2025).

Residue numbers refer to the chain shown, from its start. Names and notes keep the numbering of the source. Values joined by “and” are separate entries in the source; they are usually repeats but may differ in a detail not shown here. Equal values may be shown once.

First the molecules themselves.
B1: FliF(∆214–220) (natural protein, Salmonella enterica serovar Typhimurium)
chain: MSATASTATQPKPLEWLNRLRANPRIPLIVAGSAAVAIVVAMVLWAKTPDYRTLFSNLSDQDGGAIVAQLTQMNIPYRFANGSGAIEVPADKVHELRLRLAQQGLPKGGAVGFELLDQEKFGISQFSEQVNYQRALEGELARTIETLGPVKSARVHLAMPKPSLFVREQKSPSASVTVTLEPGRALDEGQISAVVHLVSSAVAGLPPGNVTLVTQSNTSGRDLNDAQLKFANDVESRIQRRIEAILSPIVGNGNVHAQVTAQLDFANKEQTEEHYSPNGDASKATLRSRQLNISEQVGAGYPGGVPGALSNQPAPPNEAPIATPPTNQQNAQNTPQTSTSTNSNSAGPRSTQRNETSNYEVDRTIRHTKMNVGDIERLSVAVVVNYKTLADGKPLPLTADQMKQIEDLTREAMGFSDKRGDTLNVVNSPFSAVDNTGGELPFWQQQSFIDQLLAAGRWLLVLVVAWILWRKAVRPQLTRRVEEAKAAQEQAQVRQETEEAVEVRLSKDEQLQQRRANQRLGAEVMSQRIREMSDNDPRVVALVIRQWMSNDHE
B2: FliF(∆221–227) (natural protein, Salmonella enterica serovar Typhimurium)
chain: B1 chain with T214D, N217G, T218H, S219L, G220L
B3: FliF(G217W) (natural protein, Salmonella enterica serovar Typhimurium)
chain: MSATASTATQPKPLEWLNRLRANPRIPLIVAGSAAVAIVVAMVLWAKTPDYRTLFSNLSDQDGGAIVAQLTQMNIPYRFANGSGAIEVPADKVHELRLRLAQQGLPKGGAVGFELLDQEKFGISQFSEQVNYQRALEGELARTIETLGPVKSARVHLAMPKPSLFVREQKSPSASVTVTLEPGRALDEGQISAVVHLVSSAVAGLPPGNVTLVDQSWHLLTQSNTSGRDLNDAQLKFANDVESRIQRRIEAILSPIVGNGNVHAQVTAQLDFANKEQTEEHYSPNGDASKATLRSRQLNISEQVGAGYPGGVPGALSNQPAPPNEAPIATPPTNQQNAQNTPQTSTSTNSNSAGPRSTQRNETSNYEVDRTIRHTKMNVGDIERLSVAVVVNYKTLADGKPLPLTADQMKQIEDLTREAMGFSDKRGDTLNVVNSPFSAVDNTGGELPFWQQQSFIDQLLAAGRWLLVLVVAWILWRKAVRPQLTRRVEEAKAAQEQAQVRQETEEAVEVRLSKDEQLQQRRANQRLGAEVMSQRIREMSDNDPRVVALVIRQWMSNDHE
B4: FliF(G217P) (natural protein, Salmonella enterica serovar Typhimurium)
chain: B3 chain with W217P
B5: FliF(G217A) (natural protein, Salmonella enterica serovar Typhimurium)
chain: B3 chain with W217A
B6: FliF(∆165–167) (natural protein, Salmonella enterica serovar Typhimurium)
chain: MSATASTATQPKPLEWLNRLRANPRIPLIVAGSAAVAIVVAMVLWAKTPDYRTLFSNLSDQDGGAIVAQLTQMNIPYRFANGSGAIEVPADKVHELRLRLAQQGLPKGGAVGFELLDQEKFGISQFSEQVNYQRALEGELARTIETLGPVKSARVHLAMPKPSLEQKSPSASVTVTLEPGRALDEGQISAVVHLVSSAVAGLPPGNVTLVDQSGHLLTQSNTSGRDLNDAQLKFANDVESRIQRRIEAILSPIVGNGNVHAQVTAQLDFANKEQTEEHYSPNGDASKATLRSRQLNISEQVGAGYPGGVPGALSNQPAPPNEAPIATPPTNQQNAQNTPQTSTSTNSNSAGPRSTQRNETSNYEVDRTIRHTKMNVGDIERLSVAVVVNYKTLADGKPLPLTADQMKQIEDLTREAMGFSDKRGDTLNVVNSPFSAVDNTGGELPFWQQQSFIDQLLAAGRWLLVLVVAWILWRKAVRPQLTRRVEEAKAAQEQAQVRQETEEAVEVRLSKDEQLQQRRANQRLGAEVMSQRIREMSDNDPRVVALVIRQWMSNDHE
B7: FliF (flagellar MS-ring protein), wild type (natural protein, Salmonella enterica serovar Typhimurium, UniProt P15928 1-560, looked up)
chain: B3 chain with W217G

The first data set concerns the molecule itself. Briefly: negative-stain electron microscopy.
Regarding B1, the binding result is recorded as “binds”. In the case of B2, the binding result was “binds”. Still for that read-out and setting: under B3 stands “binds”; under B4, “binds”. The same measure, in the same setting: the same measure for B5: “binds”; for B6: “binds”.

A further data set concerns the molecule itself. Briefly: cryo-EM structure.
Take B7: the “stoichiometry N” value was 33 and 34.
